B1: H5-Ab4 (antibody, V domains shown)
VH: EVQLVESGGGAVQPGRSLRLSCAVSGFTFSSYGMNWVRQAPGKGLEWVAVISYDGSNTYYADSVKGRFTISRDDSKNTLFLQMNSLRADDTAVYYCAKDFQLRLLRYFDWLSSPFDHWGQGTLVTVSS
VL: DIQLTQSPGTLSLSPGERATLSCRASQSIRSNFLAWYQQTPGQGPRLLIYGASSRATGIPDRFSGSGSGTDFTLTISGLEPEDFAVYYCQQYASSPQTFGQGTKVEIK
B2: H5-Ab2 (antibody, V domains shown)
VH: EVQLVQSGAEVKKPGSSVKVSCRSSGGPFRSNAISWVRQAPGQGLEWMGGIIAVFGTVEYAQKFQGRVTITADDSRSTVYMELRSLRSDDTAFYYCASAHGYHNYGSRGYFVSWGQGTLVTVSS
VL: DIVMTQSPGTLSLSPGERATLSCRASQSVSSNYLAWYQQKLGQPPRLLIYGASSRATGIPDRFSGSGSGTDFTLTISRLEPEDYAVYYCQQYGSSPHTFGQGTKVEIK

Target: T1, H1N1 HA (A/New Caledonia/20/1999), wild type (Influenza A virus A/New …, UniProt Q6WG00, strain)
T1 construct: also called H1 wt; source: provided by D. Lingwood
Experiment: ELISA

Row | Binder | binding result
1 | B1 | binds
2 | B2 | binds

Source: paper PMC5551578 (The Journal of Experimental Medicine, 2017)
